The target of assay [1] is T1, recombinant Tie2 extracellular domain-Fc fusion (UniProt Q02763 23-748).
T1 construct: extracellular domain; also called Tie2-Fc; Tie2 receptor-Fc fusion; not shown: It is probably human IgG Fc: human IgG1 was added to remove anti-Fc mAbs, and the fusion was ca
The experiment in a line: BIAcore SPR; mAb captured on rabbit anti-mouse IgG Fc, Tie2-Fc injected. The method, then:
The affinity of the purified mAbs was measured in the BIAcore. Using a flow rate of 10 ul/min, the mAb (diluted in HBS buffer) was injected over a rabbit anti-mouse IgG Fc surface, followed by buffer flow and the RU recorded. Tie2-Fc diluted in HBS buffer was then injected for 120s followed by buffer flow for 240s and regeneration of the sensor chip surface with an injection of 15 ul 0.1 M phosphoric acid. BIAcore software was used for association and dissociation-phase analysis. The murine monoclonal antibodies bound to soluble monomeric Tie2 receptor. The on-rates ($kass$) and off-rates ($kdiss$) were calculated.

Assay [2] concerns the target Tie2 receptor on HEL cells or HUVECs (human, UniProt Q02763 23-1124). The experiment in a line: cell-based or functional assay.

A word on the Kd: it is the concentration at which binding is half-saturated.

T1 sequence (Q02763 23-748): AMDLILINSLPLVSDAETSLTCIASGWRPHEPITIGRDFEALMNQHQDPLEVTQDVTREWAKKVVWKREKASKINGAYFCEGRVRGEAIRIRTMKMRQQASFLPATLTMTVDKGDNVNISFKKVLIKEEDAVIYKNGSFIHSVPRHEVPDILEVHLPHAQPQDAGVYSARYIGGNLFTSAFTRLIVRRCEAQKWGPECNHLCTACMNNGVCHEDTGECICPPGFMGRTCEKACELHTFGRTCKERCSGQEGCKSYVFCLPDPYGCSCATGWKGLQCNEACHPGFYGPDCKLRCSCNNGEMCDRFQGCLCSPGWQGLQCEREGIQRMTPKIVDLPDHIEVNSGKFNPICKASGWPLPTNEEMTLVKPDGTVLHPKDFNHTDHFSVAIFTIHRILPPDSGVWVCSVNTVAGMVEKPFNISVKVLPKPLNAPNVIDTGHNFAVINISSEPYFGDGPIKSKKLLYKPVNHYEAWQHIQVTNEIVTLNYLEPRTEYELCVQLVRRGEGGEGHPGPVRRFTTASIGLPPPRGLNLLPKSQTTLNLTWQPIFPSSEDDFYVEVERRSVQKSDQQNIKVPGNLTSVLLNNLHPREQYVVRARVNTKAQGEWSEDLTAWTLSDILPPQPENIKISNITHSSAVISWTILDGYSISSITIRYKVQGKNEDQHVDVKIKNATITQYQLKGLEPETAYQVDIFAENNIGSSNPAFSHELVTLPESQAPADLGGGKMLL
Sequence of Tie2 receptor on HEL cells or HUVECs (Q02763 23-1124): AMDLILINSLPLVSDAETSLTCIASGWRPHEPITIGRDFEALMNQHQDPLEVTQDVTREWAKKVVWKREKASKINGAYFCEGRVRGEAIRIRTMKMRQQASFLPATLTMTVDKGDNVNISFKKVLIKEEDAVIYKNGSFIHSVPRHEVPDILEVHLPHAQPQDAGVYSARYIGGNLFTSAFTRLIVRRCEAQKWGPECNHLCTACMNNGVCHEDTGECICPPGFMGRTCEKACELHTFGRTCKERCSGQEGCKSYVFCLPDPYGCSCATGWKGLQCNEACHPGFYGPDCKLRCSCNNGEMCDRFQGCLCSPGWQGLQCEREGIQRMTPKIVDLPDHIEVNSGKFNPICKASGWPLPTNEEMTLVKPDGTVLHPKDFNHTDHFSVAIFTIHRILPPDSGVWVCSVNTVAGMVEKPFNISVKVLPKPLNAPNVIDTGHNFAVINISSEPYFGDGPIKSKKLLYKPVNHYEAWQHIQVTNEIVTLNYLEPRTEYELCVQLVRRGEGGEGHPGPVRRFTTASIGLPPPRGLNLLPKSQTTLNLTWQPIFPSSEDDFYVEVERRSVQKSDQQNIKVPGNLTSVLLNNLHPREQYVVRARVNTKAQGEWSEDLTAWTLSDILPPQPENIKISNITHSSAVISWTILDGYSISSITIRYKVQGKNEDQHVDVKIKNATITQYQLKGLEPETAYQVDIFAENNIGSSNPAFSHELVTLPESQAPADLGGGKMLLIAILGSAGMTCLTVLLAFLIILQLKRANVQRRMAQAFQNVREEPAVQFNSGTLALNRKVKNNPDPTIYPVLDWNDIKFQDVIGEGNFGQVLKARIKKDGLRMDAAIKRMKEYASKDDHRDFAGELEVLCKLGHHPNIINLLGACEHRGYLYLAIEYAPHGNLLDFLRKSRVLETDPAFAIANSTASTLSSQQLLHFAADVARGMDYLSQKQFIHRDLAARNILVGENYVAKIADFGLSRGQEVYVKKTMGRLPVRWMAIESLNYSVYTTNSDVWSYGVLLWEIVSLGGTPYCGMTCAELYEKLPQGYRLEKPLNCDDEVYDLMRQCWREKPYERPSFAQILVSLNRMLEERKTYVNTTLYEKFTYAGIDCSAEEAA

B1: murine monoclonal antibody 13H10 (antibody, V domains shown)
VH: QIQLVQSGPELKKPGETVKISCKASGYTFTDFSIHWVKQAPGKGLKWMGWINTETGETTYAEDFKGRFAFSLETSASTAYLQINNLKNEDTATYFCSRRYDYDTWFAYWGQGTLVTVS
VL: DIVMTQAALSVPVTPGESVSISCRSSSSLLHRNGNTYLYWFLQRPGQSPQLLIYRMSNLASGVPDRFSGSGSGTAFTLRISRVEAEDVGVYYCMQRLEYPFTFGGGTKLEIKR
notes: Constant regions are mouse IgG heavy and kappa light, going by the PCR primers; also called mAb 13H10; mAb 13H 10
For the molecule B1, the Kd in assay [1] was found to be 3.1 nM.

B2: murine monoclonal antibody 15B8 (antibody, V domains shown)
VH: QVQLQQPGVVLVMPGASVKLSCKASGYTFASYWMHWVKQRPGQGLEWIGEIDPSDSYRNYNQKFKGKATLTVDKSSSTVNMQLSSLTSEDSAVYYCAKTSGIGRAMDYWGQGTSVTVSS
VL: DIQMIQSPASLSASVGETVTITCRASENIYSFVTWYQQKQGKSPQLLVFNAKNLVEGVPSSFSGSGSGTQFSLKIDSLQPEDFGTYYCQHHYSIPYTFGGGTKLEMR
notes: Constant regions are mouse IgG heavy and kappa light, going by the PCR primers; also called mAb 15B8; mAb 1 B 8
In the case of B2, the “Tie2 receptor tyrosine phosphorylation (immunoprecipitation and anti-phosphotyrosine Western blot, ratio to Tie-2 staining)” value in assay [2] is > 2 fold over basal. For the same molecule, the dissociation constant Kd in assay [1] worked out at 0.24 nM.

For the origin of these results see patent publication US6365154 (GlaxoSmithKline, dated 2002).
